Test results from patent US20140178353A1.

Molecular target: Lon protease of E. coli (endogenous) (E. coli) (UniProt P0A9M0)
Experiment: cell-based or functional assay

Sequence of UniProt P0A9M0 (P0A9M0 2-784 limits assumed): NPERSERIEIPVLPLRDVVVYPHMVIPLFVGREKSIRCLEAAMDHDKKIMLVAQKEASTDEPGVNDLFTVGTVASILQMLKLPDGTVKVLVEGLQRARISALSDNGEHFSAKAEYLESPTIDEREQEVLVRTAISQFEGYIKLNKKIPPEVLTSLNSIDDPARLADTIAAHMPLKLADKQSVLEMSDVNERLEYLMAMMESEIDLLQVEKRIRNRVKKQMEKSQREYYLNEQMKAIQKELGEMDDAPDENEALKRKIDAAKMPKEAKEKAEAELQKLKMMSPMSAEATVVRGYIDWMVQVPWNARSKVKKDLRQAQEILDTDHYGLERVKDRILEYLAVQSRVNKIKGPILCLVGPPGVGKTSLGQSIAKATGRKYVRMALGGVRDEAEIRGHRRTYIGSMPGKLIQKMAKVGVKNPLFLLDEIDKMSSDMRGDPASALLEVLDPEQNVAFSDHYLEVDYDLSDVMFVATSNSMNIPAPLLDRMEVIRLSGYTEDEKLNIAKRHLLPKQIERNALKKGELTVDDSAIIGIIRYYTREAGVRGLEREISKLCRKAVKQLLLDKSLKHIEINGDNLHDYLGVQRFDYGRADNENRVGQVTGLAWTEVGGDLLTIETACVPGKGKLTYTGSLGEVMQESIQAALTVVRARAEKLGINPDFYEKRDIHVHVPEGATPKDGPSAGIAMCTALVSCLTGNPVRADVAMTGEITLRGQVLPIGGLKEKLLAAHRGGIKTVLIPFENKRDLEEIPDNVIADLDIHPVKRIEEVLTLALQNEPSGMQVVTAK

In the case of “T7 phage gene product (Gp) 4.5 expressed in E. coli from a plasmid (peptide)”, the fold decrease in persistence: fraction of surviving E. coli cells following 5 hr exposure to ampicillin is reported as 5 fold.
